Data from US20180155451A1 (published 2018).

The binders below were run against T1, FcγRIa (human, UniProt P12314 16-292) (assay: SPR (Biacore), antibody captured on antigen peptide chip, FcγRIa as analyte; relative binding amount).
T1 construct: extracellular domain; also called FcgRI; CD64; not shown: C-terminal His tag
Description: Analysis of interaction between objective antibody and the FcγR was carried out using Biacore T100 (GE Healthcare). HBS-EP+ (GE Healthcare) was used as the running buffer, and the measurement temperature was set to 25° C. Chips produced by immobilizing the antigen peptide by the amine coupling method to a Series S Sencor Chip CM5 (GE Healthcare), or alternatively, chips produced by allowing preliminarily biotinylated antigen peptides to interact with and immobilize onto a Series S Sensor Chip SA (certified) (GE Healthcare) were used. Antibodies of interest were captured onto an antigen peptide-immobilized chip, and allowed to interact to each FcγR diluted with running buffer. To regenerate and repeatedly use the chip, the antibodies captured on the chip were washed off by reacting 10 mM glycine-HCl, pH 1.5.

T1 sequence (P12314 16-292): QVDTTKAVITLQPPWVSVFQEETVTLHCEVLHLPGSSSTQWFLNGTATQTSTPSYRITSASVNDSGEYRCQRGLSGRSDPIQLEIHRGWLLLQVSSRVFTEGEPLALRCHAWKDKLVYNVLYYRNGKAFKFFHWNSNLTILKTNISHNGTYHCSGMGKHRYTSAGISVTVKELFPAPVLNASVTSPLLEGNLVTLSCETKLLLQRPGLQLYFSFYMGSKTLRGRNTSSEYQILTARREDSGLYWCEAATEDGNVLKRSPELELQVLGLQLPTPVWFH

| Ho/Con_1a | Binder |
| --- | --- |
| 105 % of control (GpH7-B3/GpL16-k0 = 100) | GpH7-B3 variant T335_19Q/GpL16-k0 (antibody, human IgG1, kappa, homodimerized IgG1; mutation in both H chains; also called Ho Ab) heavy: not shown light: DIVMTQSPLSLPVTPGEPASISCQASESLVHSNRNTYLHWYLQKPGQSPQLLIYKVSNRFSGVPDRFSGSGSGTDFTLKISRVEAEDVGVYYCSQNTHVPPTFGQGTKVEIERTVAAPSVFIFPPSDEQLKSGTASVVCLLNNFYPREAKVQWKVDNALQSGNSQESVTEQDSKDSTYSLSSTLTLSKADYEKHKVYACEVTHQGLSSPVTKSFNRGEC |
| 110 % of control (GpH7-B3/GpL16-k0 = 100) | GpH7-B3 variant Y300_02A/GpL16-k0 (antibody, human IgG1, kappa, homodimerized IgG1; mutation in both H chains; also called Ho Ab) heavy: not shown light: DIVMTQSPLSLPVTPGEPASISCQASESLVHSNRNTYLHWYLQKPGQSPQLLIYKVSNRFSGVPDRFSGSGSGTDFTLKISRVEAEDVGVYYCSQNTHVPPTFGQGTKVEIERTVAAPSVFIFPPSDEQLKSGTASVVCLLNNFYPREAKVQWKVDNALQSGNSQESVTEQDSKDSTYSLSSTLTLSKADYEKHKVYACEVTHQGLSSPVTKSFNRGEC |
| 106 % of control (GpH7-B3/GpL16-k0 = 100) | GpH7-B3 variant Y296_10E/GpL16-k0 (antibody, human IgG1, kappa, homodimerized IgG1; mutation in both H chains; also called Ho Ab) heavy: not shown light: DIVMTQSPLSLPVTPGEPASISCQASESLVHSNRNTYLHWYLQKPGQSPQLLIYKVSNRFSGVPDRFSGSGSGTDFTLKISRVEAEDVGVYYCSQNTHVPPTFGQGTKVEIERTVAAPSVFIFPPSDEQLKSGTASVVCLLNNFYPREAKVQWKVDNALQSGNSQESVTEQDSKDSTYSLSSTLTLSKADYEKHKVYACEVTHQGLSSPVTKSFNRGEC |
| 110 % of control (GpH7-B3/GpL16-k0 = 100) | GpH7-B3 variant Y300_13S/GpL16-k0 (antibody, human IgG1, kappa, homodimerized IgG1; mutation in both H chains; also called Ho Ab) heavy: not shown light: DIVMTQSPLSLPVTPGEPASISCQASESLVHSNRNTYLHWYLQKPGQSPQLLIYKVSNRFSGVPDRFSGSGSGTDFTLKISRVEAEDVGVYYCSQNTHVPPTFGQGTKVEIERTVAAPSVFIFPPSDEQLKSGTASVVCLLNNFYPREAKVQWKVDNALQSGNSQESVTEQDSKDSTYSLSSTLTLSKADYEKHKVYACEVTHQGLSSPVTKSFNRGEC |
| 105 % of control (GpH7-B3/GpL16-k0 = 100) | GpH7-B3 variant Y296_14T/GpL16-k0 (antibody, human IgG1, kappa, homodimerized IgG1; mutation in both H chains; also called Ho Ab) heavy: not shown light: DIVMTQSPLSLPVTPGEPASISCQASESLVHSNRNTYLHWYLQKPGQSPQLLIYKVSNRFSGVPDRFSGSGSGTDFTLKISRVEAEDVGVYYCSQNTHVPPTFGQGTKVEIERTVAAPSVFIFPPSDEQLKSGTASVVCLLNNFYPREAKVQWKVDNALQSGNSQESVTEQDSKDSTYSLSSTLTLSKADYEKHKVYACEVTHQGLSSPVTKSFNRGEC |
| 105 % of control (GpH7-B3/GpL16-k0 = 100) | GpH7-B3 variant Y296_16H/GpL16-k0 (antibody, human IgG1, kappa, homodimerized IgG1; mutation in both H chains; also called Ho Ab) heavy: not shown light: DIVMTQSPLSLPVTPGEPASISCQASESLVHSNRNTYLHWYLQKPGQSPQLLIYKVSNRFSGVPDRFSGSGSGTDFTLKISRVEAEDVGVYYCSQNTHVPPTFGQGTKVEIERTVAAPSVFIFPPSDEQLKSGTASVVCLLNNFYPREAKVQWKVDNALQSGNSQESVTEQDSKDSTYSLSSTLTLSKADYEKHKVYACEVTHQGLSSPVTKSFNRGEC |
| 109 % of control (GpH7-B3/GpL16-k0 = 100) | GpH7-B3 variant Y300_08L/GpL16-k0 (antibody, human IgG1, kappa, homodimerized IgG1; mutation in both H chains; also called Ho Ab) heavy: not shown light: DIVMTQSPLSLPVTPGEPASISCQASESLVHSNRNTYLHWYLQKPGQSPQLLIYKVSNRFSGVPDRFSGSGSGTDFTLKISRVEAEDVGVYYCSQNTHVPPTFGQGTKVEIERTVAAPSVFIFPPSDEQLKSGTASVVCLLNNFYPREAKVQWKVDNALQSGNSQESVTEQDSKDSTYSLSSTLTLSKADYEKHKVYACEVTHQGLSSPVTKSFNRGEC |
| 102 % of control (GpH7-B3/GpL16-k0 = 100) | GpH7-B3 variant Y296_11K/GpL16-k0 (antibody, human IgG1, kappa, homodimerized IgG1; mutation in both H chains; also called Ho Ab) heavy: not shown light: DIVMTQSPLSLPVTPGEPASISCQASESLVHSNRNTYLHWYLQKPGQSPQLLIYKVSNRFSGVPDRFSGSGSGTDFTLKISRVEAEDVGVYYCSQNTHVPPTFGQGTKVEIERTVAAPSVFIFPPSDEQLKSGTASVVCLLNNFYPREAKVQWKVDNALQSGNSQESVTEQDSKDSTYSLSSTLTLSKADYEKHKVYACEVTHQGLSSPVTKSFNRGEC |
| 111 % of control (GpH7-B3/GpL16-k0 = 100) | GpH7-B3 variant Y300_10E/GpL16-k0 (antibody, human IgG1, kappa, homodimerized IgG1; mutation in both H chains; also called Ho Ab) heavy: not shown light: DIVMTQSPLSLPVTPGEPASISCQASESLVHSNRNTYLHWYLQKPGQSPQLLIYKVSNRFSGVPDRFSGSGSGTDFTLKISRVEAEDVGVYYCSQNTHVPPTFGQGTKVEIERTVAAPSVFIFPPSDEQLKSGTASVVCLLNNFYPREAKVQWKVDNALQSGNSQESVTEQDSKDSTYSLSSTLTLSKADYEKHKVYACEVTHQGLSSPVTKSFNRGEC |
| 110 % of control (GpH7-B3/GpL16-k0 = 100) | GpH7-B3 variant Y300_14T/GpL16-k0 (antibody, human IgG1, kappa, homodimerized IgG1; mutation in both H chains; also called Ho Ab) heavy: not shown light: DIVMTQSPLSLPVTPGEPASISCQASESLVHSNRNTYLHWYLQKPGQSPQLLIYKVSNRFSGVPDRFSGSGSGTDFTLKISRVEAEDVGVYYCSQNTHVPPTFGQGTKVEIERTVAAPSVFIFPPSDEQLKSGTASVVCLLNNFYPREAKVQWKVDNALQSGNSQESVTEQDSKDSTYSLSSTLTLSKADYEKHKVYACEVTHQGLSSPVTKSFNRGEC |
